Reference: patent US20220332804A1 (CSL INNOVATION, published 2022)
Where a chain is given by its changes, count along the chain named.

Assays:
Test in all cases: SPR, antibody captured, C2 as analyte;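 also: biacore SPR at 37 °C, anti-C2 mAbs captured via goat anti-human IgG on CM5 chips, double-referenced sensorgrams fit to a 1:1 kinetic or steady-state model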
[1] = molecular target: T1, human C2 A470S (human, UniProt P06681 21-752)
T1 sequence: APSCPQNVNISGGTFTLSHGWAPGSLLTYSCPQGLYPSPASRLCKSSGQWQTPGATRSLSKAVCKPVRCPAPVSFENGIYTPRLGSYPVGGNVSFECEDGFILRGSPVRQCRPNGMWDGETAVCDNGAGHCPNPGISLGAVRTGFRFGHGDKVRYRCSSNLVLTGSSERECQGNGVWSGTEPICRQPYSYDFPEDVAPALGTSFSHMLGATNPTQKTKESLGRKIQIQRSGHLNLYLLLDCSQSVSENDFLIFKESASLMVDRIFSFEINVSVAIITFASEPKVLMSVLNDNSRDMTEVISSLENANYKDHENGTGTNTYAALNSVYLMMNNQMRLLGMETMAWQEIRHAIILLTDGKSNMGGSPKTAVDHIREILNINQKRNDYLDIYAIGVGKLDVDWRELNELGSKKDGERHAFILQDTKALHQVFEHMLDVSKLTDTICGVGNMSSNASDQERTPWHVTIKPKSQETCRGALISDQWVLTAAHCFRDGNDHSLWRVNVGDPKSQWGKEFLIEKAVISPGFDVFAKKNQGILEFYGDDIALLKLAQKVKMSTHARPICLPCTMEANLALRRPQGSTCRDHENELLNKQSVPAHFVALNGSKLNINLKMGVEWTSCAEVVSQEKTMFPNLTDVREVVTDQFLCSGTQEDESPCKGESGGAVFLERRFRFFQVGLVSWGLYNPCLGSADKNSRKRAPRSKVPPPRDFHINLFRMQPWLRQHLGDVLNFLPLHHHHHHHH

[2] = molecular target: T2, human C2 R688A (human, UniProt P06681 21-752)
T2 sequence: T1 sequence with S450A, R668A

[3] = molecular target: T3, human C2 R719A (human, UniProt P06681 21-752)
T3 sequence: T1 sequence with S450A, R699A

[4] = molecular target: T4, human C2 R714A (human, UniProt P06681 21-752)
T4 sequence: T1 sequence with S450A, R694A

B1: RF16-226 (antibody, human IgG4 S228P, lambda)
heavy: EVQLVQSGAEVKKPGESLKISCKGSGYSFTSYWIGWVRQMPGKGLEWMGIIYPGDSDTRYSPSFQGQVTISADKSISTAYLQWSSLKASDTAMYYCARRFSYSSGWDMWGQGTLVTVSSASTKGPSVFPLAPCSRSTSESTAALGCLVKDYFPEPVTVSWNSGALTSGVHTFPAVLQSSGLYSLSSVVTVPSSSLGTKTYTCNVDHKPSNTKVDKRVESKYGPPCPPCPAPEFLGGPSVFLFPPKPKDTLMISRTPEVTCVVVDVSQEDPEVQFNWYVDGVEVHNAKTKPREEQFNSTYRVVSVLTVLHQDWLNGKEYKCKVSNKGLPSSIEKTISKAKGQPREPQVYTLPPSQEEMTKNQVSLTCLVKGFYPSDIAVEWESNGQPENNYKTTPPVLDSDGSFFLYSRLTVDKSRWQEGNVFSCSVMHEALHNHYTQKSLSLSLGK
light: SYELTQPPSVSVSPGQTARITCSGDALTSKYVAWYQQKSGLAPLLVIYEDTRRPSGIPAKFSGSSSGSVATLTISGAHGDDEADYYCYSTDASGHQRVFGGGTKLTVLSQPKAAPSVTLFPPSSEELQANKATLVCLISDFYPGAVTVAWKADGSPVKAGVETTKPSKQSNNKYAASSYLSLTPEQWKSHRSYSCQVTHEGSTVEKTVAPTECS
notes: pH-dependent anti-C2 antibody from a phage display library; also called WT
Kd [1]: 7.8 nM
Kd [2]: 25.3 nM
Kd [3]: 8.5 nM
Kd [4]: 53 nM
